# Source: publication PMC11309785
# Legend:
# Experiment in all cases: SPR; ProteOn XPR36, HC30M chip; IgG captured at low density (about 50 to 100 RU) by anti-human IgG (Fc) antibody, trimer flowed as analyte, highest concentration 3 µM; 1x HBS-EP+ pH 7.4 with BSA 1 mg/ml
# [1] = molecular target: BG18 inferred germline IgG, Asp at the (D3-3)+2 position (human)
# [2] = molecular target: BG18 inferred germline IgG, Glu at the (D3-3)+2 position (human)
# [3] = molecular target: BG18 inferred germline IgG, Gly at the (D3-3)+2 position (human)
# Sequence of BG18 inferred germline IgG, Gly at the (D3-3)+2 position (human) (heavy, as listed by the source, chain 1 of 2): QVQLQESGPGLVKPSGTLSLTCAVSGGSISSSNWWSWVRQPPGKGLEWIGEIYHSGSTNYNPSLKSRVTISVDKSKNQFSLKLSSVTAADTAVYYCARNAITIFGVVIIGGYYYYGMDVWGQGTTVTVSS
# Sequence of BG18 inferred germline IgG, Gly at the (D3-3)+2 position (human) (light, as listed by the source, chain 2 of 2): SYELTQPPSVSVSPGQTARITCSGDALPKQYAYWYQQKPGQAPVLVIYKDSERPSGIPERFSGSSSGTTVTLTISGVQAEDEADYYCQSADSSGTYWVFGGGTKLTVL
# Sequence of BG18 inferred germline IgG, Glu at the (D3-3)+2 position (human) (heavy, as listed by the source, chain 1 of 2): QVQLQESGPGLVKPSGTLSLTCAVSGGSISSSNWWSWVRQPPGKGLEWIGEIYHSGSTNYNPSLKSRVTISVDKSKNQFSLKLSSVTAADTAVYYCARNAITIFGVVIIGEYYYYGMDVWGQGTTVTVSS
# Sequence of BG18 inferred germline IgG, Glu at the (D3-3)+2 position (human) (light, as listed by the source, chain 2 of 2): as the sequence (light, as listed by the source, chain 2 of 2) above
# Sequence of BG18 inferred germline IgG, Asp at the (D3-3)+2 position (human) (heavy, as listed by the source, chain 1 of 2): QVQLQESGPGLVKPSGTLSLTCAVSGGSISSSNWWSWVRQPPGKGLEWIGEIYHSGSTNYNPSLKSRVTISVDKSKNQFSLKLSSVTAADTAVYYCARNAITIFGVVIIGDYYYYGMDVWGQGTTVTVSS
# Sequence of BG18 inferred germline IgG, Asp at the (D3-3)+2 position (human) (light, as listed by the source, chain 2 of 2): as the sequence (light, as listed by the source, chain 2 of 2) above
substance,measurement,setting,value
N332-GT5 trimer (BG505_MD65_congly_N332-GT5),Kd,[1],39 nM
same,Kd,[2],0.7 nM
same,Kd,[3],1790 nM
